Measured values as given in IntAct's records for PubMed 31515488.

B1: Kinetochore protein NDC80 homolog (Homo sapiens), O14777 (parent)
chain: MKRSSVSSGGAGRLSMQELRSQDVNKQGLYTPQTKEKPTFGKLSINKPTSERKVSLFGKRTSGHGSRNSQLGIFSSSEKIKDPRPLNDKAFIQQCIRQLCEFLTENGYAHNVSMKSLQAPSVKDFLKIFTFLYGFLCPSYELPDTKFEEEVPRIFKDLGYPFALSKSSMYTVGAPHTWPHIVAALVWLIDCIKIHTAMKESSPLFDDGQPWGEETEDGIMHNKLFLDYTIKCYESFMSGADSFDEMNAELQSKLKDLFNVDAFKLESLEAKNRALNEQIARLEQEREKEPNRLESLRKLKASLQGDVQKYQAYMSNLESHSAILDQKLNGLNEEIARVELECETIKQENTRLQNIIDNQKYSVADIERINHERNELQQTINKLTKDLEAEQQKLWNEELKYARGKEAIETQLAEYHKLARKLKLIPKGAENSKGYDFEIKFNPEAGANCLVKYRAQVYVPLKELLNETEEEINKALNKKMGLEDTLEQLNAMITESKRSVRTLKEEVQKLDDLYQQKIKEAEEEDEKCASELESLEKHKHLLESTVNQGLSEAMNELDAVQREYQLVVQTTTEERRKVGNNLQRLLEMVATHVGSVEKHLEEQIAKVDREYEECMSEDLSENIKEIRDKYEKKATLIKSSEE
B2: Microtubule-associated tumor suppressor candidate 2 (Homo sapiens), Q5JR59-3 (parent)
chain: MGHCCCKPYNCLQCLDKTNESALVKEKELSIELANIRDEVAFHTAKCEKLQKEKEELERRFEDEVKRLGWQQQAELQELEERLQLQFEAEMARLQEEHGDQLLSIRCQHQEQVEDLTASHDAALLEMENNHTVAITILQDDHDHKVQELMSTHELEKKELEENFEKLRLSLQDQVDTLTFQSQSLRDRARRFEEALRKNTEEQLEIALAPYQHLEEDMKSLKQVLEMKNQQIHEQEKKILELEKLAEKNIILEEKIQVLQQQNEDLKARIDQNTVVTRQLSEENANLQEYVEKETQEKKRLSRTNEELLWKLQTGDPTSPIKLSPTSPVYRGSSSGPSSPARVSTTPR
partner: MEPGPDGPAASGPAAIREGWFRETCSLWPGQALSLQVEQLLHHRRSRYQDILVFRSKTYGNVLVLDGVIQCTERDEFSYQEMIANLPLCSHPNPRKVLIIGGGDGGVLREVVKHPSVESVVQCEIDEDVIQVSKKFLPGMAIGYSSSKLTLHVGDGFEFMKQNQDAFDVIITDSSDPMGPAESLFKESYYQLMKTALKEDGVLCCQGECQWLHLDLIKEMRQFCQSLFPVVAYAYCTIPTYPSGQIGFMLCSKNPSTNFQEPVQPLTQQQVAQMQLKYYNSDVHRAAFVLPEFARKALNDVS
B3: Peroxisomal biogenesis factor 19 (Homo sapiens), P40855 (parent)
chain: MAAAEEGCSVGAEADRELEELLESALDDFDKAKPSPAPPSTTTAPDASGPQKRSPGDTAKDALFASQEKFFQELFDSELASQATAEFEKAMKELAEEEPHLVEQFQKLSEAAGRVGSDMTSQQEFTSCLKETLSGLAKNATDLQNSSMSEEELTKAMEGLGMDEGDGEGNILPIMQSIMQNLLSKDVLYPSLKEITEKYPEWLQSHRESLPPEQFEKYQEQHSVMCKICEQFEAETPTDSETTQKARFEMVLDLMQQLQDLGHPPKELAGEMPPGLNFDLDALNLSGPPGASGEQCLIM
partner: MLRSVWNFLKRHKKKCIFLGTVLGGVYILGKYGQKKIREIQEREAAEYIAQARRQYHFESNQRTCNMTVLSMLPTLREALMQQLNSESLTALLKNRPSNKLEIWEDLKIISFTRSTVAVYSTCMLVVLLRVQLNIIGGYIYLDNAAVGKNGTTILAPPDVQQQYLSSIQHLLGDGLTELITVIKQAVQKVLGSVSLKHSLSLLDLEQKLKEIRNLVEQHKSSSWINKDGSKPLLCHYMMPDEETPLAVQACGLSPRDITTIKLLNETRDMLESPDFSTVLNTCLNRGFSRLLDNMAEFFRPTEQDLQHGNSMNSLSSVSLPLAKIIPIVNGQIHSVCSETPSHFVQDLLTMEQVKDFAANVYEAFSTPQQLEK
B4: Chorion-specific transcription factor GCMb (Homo sapiens), O75603 (parent)
chain: MPAAAVQEAVGVCSYGMQLSWDINDPQMPQELALFDQFREWPDGYVRFIYSSDEKKAQRHLSGWAMRNTNNHNGHILKKSCLGVVVCTQACTLPDGSRLQLRPAICDKARLKQQKKACPNCHSALELIPCRGHSGYPVTNFWRLDGNAIFFQAKGVHDHPRPESKSETEARRSAIKRQMASFYQPQKKRIRESEAEENQDSSGHFSNIPPLENPEDFDIVTETSFPIPGQPCPSFPKSDVYKATCDLATFQGDKMPPFQKYSSPRIYLPRPPCSYELANPGYTNSSPYPTLYKDSTSIPNDTDWVHLNTLQCNVNSYSSYERSFDFTNKQHGWKPALGKPSLVERTNHGQFQAMATRPYYNPELPCRYLTTPPPGAPALQTVITTTTKVSYQAYQPPAMKYSDSVREVKSLSSCNYAPEDTGMSVYPEPWGPPVTVTRAASPSGPPPMKIAGDCRAIRPTVAIPHEPVSSRTDEAETWDVCLSGLGSAVSYSDRVGPFFTYNNEDF
B5: Tuftelin-interacting protein 11 (Homo sapiens), Q9UBB9 (parent)
chain: MSLSHLYRDGEGRIDDDDDERENFEITDWDLQNEFNPNRQRHWQTKEEATYGVWAERDSDDERPSFGGKRARDYSAPVNFISAGLKKGAAEEAELEDSDDEEKPVKQDDFPKDFGPRKLKTGGNFKPSQKGFAGGTKSFMDFGSWERHTKGIGQKLLQKMGYVPGRGLGKNAQGIINPIEAKQRKGKGAVGAYGSERTTQSMQDFPVVDSEEEAEEEFQKELSQWRKDPSGSKKKPKYSYKTVEELKAKGRISKKLTAPQKELSQVKVIDMTGREQKVYYSYSQISHKHNVPDDGLPLQSQQLPQSGKEAKAPGFALPELEHNLQLLIDLTEQEIIQNDRQLQYERDMVVNLFHELEKMTEVLDHEERVISNLSKVLEMVEECERRMQPDCSNPLTLDECARIFETLQDKYYEEYRMSDRVDLAVAIVYPLMKEYFKEWDPLKDCTYGTEIISKWKSLLENDQLLSHGGQDLSADAFHRLIWEVWMPFVRNIVTQWQPRNCDPMVDFLDSWVHIIPVWILDNILDQLIFPKLQKEVENWNPLTDTVPIHSWIHPWLPLMQARLEPLYSPIRSKLSSALQKWHPSDSSAKLILQPWKDVFTPGSWEAFMVKNIVPKLGMCLGELVINPHQQHMDAFYWVIDWEGMISVSSLVGLLEKHFFPKWLQVLCSWLSNSPNYEEITKWYLGWKSMFSDQVLAHPSVKDKFNEALDIMNRAVSSNVGAYMQPGARENIAYLTHTERRKDFQYEAMQERREAENMAQRGIGVAASSVPMNFKDLIETKAEEHNIVFMPVIGKRHEGKQLYTFGRIVIYIDRGVVFVQGEKTWVPTSLQSLIDMAK
partner: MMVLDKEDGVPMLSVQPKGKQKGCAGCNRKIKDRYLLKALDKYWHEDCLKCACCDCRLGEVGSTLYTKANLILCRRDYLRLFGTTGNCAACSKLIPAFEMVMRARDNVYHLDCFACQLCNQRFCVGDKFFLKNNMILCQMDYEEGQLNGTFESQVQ
B6: Spermatogenesis-associated protein 2 (Homo sapiens), Q9UM82 (parent)
chain: MGKPSSMDTKFKDDLFRKYVQFHESKVDTTTSRQRPGSDECLRVAASTLLSLHKVDPFYRFRLIQFYEVVESSLRSLSSSSLRALHGAFSMLETVGINLFLYPWKKEFRSIKTYTGPFVYYVKSTLLEEDIRAILSCMGYTPELGTAYKLRELVETLQVKMVSFELFLAKVECEQMLEIHSQVKDKGYSELDIVSERKSSAEDVRGCSDALRRRAEGREHLTASMSRVALQKSASERAAKDYYKPRVTKPSRSVDAYDSYWESRKPPLKASLSLRKEPVATDVGDDLKDEIIRPSPSLLTMASSPHGSPDVLPPASPSNGPALLRGTYFSTQDDVDLYTDSEPRATYRRQDALRPDVWLLRNDAHSLYHKRSPPAKESALSKCQSCGLSCSSSLCQRCDSLLTCPPASKPSAFPSKASTHDSLAHGASLREKYPGQTQGLDRLPHLHSKSKPSTTPTSRCGFCNRPGATNTCTQCSKVSCDACLSAYHYDPCYKKSELHKFMPNNQLNYKSTQLSHLVYR
partner: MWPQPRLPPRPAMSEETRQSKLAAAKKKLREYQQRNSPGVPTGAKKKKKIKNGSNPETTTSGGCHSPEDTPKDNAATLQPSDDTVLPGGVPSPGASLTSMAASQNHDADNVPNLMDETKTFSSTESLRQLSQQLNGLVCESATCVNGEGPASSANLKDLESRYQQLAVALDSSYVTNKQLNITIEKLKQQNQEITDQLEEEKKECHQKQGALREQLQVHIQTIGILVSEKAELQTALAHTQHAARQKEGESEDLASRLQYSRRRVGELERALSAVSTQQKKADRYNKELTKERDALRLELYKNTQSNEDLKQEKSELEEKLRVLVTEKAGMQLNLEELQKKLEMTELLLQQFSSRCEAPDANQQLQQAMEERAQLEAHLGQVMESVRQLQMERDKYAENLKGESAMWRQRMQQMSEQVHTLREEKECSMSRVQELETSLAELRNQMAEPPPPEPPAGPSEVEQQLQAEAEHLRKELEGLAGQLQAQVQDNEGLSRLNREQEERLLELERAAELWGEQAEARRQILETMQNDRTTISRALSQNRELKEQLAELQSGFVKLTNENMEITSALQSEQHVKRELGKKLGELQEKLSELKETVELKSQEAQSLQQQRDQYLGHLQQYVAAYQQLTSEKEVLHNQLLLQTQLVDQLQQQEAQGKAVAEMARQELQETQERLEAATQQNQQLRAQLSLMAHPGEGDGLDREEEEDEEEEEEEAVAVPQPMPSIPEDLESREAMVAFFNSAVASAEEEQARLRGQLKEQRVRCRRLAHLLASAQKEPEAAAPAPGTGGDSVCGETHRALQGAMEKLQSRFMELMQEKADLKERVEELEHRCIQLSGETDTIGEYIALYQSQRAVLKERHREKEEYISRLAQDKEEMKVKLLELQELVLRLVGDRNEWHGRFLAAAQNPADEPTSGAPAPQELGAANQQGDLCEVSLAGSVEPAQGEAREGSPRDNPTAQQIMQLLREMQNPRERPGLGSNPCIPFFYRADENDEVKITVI
B7: "N-acyl-aromatic-L-amino acid amidohydrolase (carboxylate-forming)" (Homo sapiens), Q96HD9 (parent)
chain: MCSLPVPREPLRRVAVTGGTHGNEMSGVYLARHWLHAPAELQRASFSAVPVLANPAATSGCRRYVDHDLNRTFTSSFLNSRPTPDDPYEVTRARELNQLLGPKASGQAFDFVLDLHNTTANMGTCLIAKSSHEVFAMHLCRHLQLQYPELSCQVFLYQRSGEESYNLDSVAKNGLGLELGPQPQGVLRADIFSRMRTLVATVLDFIELFNQGTAFPAFEMEAYRPVGVVDFPRTEAGHLAGTVHPQLQDRDFQPLQPGAPIFQMFSGEDLLYEGESTVYPVFINEAAYYEKGVAFVQTEKFTFTVPAMPALTPAPSPAS
partner: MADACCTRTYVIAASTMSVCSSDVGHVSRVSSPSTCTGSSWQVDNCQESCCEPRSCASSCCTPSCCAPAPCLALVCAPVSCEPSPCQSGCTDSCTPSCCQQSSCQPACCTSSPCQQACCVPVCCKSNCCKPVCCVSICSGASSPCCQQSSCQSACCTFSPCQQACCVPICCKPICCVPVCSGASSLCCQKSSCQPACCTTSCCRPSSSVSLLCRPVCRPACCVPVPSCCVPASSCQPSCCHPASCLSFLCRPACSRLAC
B8: Beta-crystallin A4 (Homo sapiens), P53673 (parent)
chain: MTLQCTKSAGPWKMVVWDEDGFQGRRHEFTAECPSVLELGFETVRSLKVLSGAWVGFEHAGFQGQQYILERGEYPSWDAWGGNTAYPAERLTSFRPAACANHRDSRLTIFEQENFLGKKGELSDDYPSLQAMGWEGNEVGSFHVHSGAWVCSQFPGYRGFQYVLECDHHSGDYKHFREWGSHAPTFQVQSIRRIQQ

Variants of: B1
Conditions: with amol2_human AMOTL2, Q9Y2J4
amol2_human AMOTL2, Q9Y2J4, sequence (Q9Y2J4 whole entry): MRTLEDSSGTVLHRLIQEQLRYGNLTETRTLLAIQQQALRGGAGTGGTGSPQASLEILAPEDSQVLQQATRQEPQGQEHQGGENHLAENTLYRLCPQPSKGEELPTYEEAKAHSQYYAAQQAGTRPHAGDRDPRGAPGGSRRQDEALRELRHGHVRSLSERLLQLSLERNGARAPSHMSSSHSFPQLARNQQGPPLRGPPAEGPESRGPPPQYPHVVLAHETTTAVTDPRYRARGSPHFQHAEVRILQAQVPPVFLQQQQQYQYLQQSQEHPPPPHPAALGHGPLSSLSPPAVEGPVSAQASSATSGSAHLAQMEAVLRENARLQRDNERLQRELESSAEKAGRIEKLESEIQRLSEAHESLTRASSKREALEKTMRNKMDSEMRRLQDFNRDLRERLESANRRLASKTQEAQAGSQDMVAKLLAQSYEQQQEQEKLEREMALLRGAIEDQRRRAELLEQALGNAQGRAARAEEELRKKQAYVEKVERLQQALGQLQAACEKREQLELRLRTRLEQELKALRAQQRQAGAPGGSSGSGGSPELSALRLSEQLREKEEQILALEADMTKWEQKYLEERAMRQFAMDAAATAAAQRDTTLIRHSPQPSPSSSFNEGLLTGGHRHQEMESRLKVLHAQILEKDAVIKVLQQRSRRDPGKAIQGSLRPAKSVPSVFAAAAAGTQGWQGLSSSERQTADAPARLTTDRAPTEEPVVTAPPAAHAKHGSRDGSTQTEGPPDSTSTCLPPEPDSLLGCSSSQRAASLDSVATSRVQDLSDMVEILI

effect of a mutation on the interaction | Variant
with no effect | A605P
with no effect | S55P
with no effect | E348D

Variants of: B1
Conditions: with txlna_human TXLNA

effect of a mutation on the interaction | Variant
with no effect | A605P
with no effect | S55P
with no effect | E348D

Variants of: B1
Conditions: with atf4_human ATF4, P18848
atf4_human ATF4, P18848, sequence (P18848 whole entry): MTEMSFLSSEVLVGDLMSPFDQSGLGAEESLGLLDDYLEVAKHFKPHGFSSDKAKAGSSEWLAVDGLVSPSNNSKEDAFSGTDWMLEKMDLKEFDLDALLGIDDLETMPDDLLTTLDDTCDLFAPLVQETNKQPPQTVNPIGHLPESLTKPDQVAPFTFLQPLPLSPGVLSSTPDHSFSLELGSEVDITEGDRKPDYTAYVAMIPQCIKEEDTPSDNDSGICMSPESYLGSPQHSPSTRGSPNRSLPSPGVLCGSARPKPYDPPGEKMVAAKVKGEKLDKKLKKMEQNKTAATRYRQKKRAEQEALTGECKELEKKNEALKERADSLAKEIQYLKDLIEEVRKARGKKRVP

effect of a mutation on the interaction | Variant
disrupting interaction strength | A605P
with no effect | S55P
with no effect | E348D

Variants of: B1
Conditions: with tnip1_human TNIP1, Q15025
tnip1_human TNIP1, Q15025, sequence (Q15025 whole entry): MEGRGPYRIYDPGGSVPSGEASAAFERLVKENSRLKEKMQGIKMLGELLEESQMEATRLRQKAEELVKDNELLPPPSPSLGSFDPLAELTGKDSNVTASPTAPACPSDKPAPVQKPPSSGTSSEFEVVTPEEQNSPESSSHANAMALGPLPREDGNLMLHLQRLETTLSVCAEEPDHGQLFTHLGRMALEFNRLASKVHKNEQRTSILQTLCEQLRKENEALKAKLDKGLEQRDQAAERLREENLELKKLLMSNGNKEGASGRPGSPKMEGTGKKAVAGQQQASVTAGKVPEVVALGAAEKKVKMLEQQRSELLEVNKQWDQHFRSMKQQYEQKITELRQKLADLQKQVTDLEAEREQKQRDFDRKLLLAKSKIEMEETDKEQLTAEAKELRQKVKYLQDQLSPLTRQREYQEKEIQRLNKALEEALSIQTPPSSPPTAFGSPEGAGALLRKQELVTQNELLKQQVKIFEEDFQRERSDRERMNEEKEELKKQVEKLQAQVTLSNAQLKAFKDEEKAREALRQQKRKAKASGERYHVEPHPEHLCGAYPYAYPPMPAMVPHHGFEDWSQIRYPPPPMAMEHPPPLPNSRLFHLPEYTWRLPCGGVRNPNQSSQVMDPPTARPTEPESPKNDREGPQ

effect of a mutation on the interaction | Variant
disrupting interaction strength | A605P
with no effect | S55P
with no effect | E348D

Variants of: B2
Conditions: with spee_human SRM

effect of a mutation on the interaction | Variant
with no effect | A89V

Variants of: B3
Conditions: with pex3_human PEX3, P56589

effect of a mutation on the interaction | Variant
with no effect | A85V
with no effect | L21V
with no effect | L26I
with no effect | R207G
with no effect | E6K

Variants of: B4
Conditions: with crx_human CRX

effect of a mutation on the interaction | Variant
with no effect | D53N

Variants of: B4
Conditions: with fhl3_human FHL3, Q13643
fhl3_human FHL3, Q13643, sequence (Q13643 whole entry): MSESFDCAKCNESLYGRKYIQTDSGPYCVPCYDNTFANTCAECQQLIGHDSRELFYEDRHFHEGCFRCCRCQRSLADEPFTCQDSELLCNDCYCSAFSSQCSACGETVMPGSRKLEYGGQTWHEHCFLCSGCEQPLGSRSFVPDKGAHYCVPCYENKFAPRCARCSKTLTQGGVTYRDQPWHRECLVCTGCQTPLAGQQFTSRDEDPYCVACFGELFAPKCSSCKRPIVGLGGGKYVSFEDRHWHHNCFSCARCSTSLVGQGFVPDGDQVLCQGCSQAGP

effect of a mutation on the interaction | Variant
with no effect | D53N

Variants of: B4
Conditions: with rbpms_human RBPMS

effect of a mutation on the interaction | Variant
with no effect | D53N

Variants of: B5
Conditions: with rbtn1_human LMO1, P25800

effect of a mutation on the interaction | Variant
with no effect | S688L
with no effect | R8Q

Variants of: B6
Conditions: with goga2_human GOLGA2, Q08379

effect of a mutation on the interaction | Variant
with no effect | L443F

Variants of: B7
Conditions: with kr108_human KRTAP10-8, P60410

effect of a mutation on the interaction | Variant
with no effect | R8Q

Variants of: B8
Conditions: with cep76_human CEP76, Q8TAP6
cep76_human CEP76, Q8TAP6, sequence (Q8TAP6 whole entry): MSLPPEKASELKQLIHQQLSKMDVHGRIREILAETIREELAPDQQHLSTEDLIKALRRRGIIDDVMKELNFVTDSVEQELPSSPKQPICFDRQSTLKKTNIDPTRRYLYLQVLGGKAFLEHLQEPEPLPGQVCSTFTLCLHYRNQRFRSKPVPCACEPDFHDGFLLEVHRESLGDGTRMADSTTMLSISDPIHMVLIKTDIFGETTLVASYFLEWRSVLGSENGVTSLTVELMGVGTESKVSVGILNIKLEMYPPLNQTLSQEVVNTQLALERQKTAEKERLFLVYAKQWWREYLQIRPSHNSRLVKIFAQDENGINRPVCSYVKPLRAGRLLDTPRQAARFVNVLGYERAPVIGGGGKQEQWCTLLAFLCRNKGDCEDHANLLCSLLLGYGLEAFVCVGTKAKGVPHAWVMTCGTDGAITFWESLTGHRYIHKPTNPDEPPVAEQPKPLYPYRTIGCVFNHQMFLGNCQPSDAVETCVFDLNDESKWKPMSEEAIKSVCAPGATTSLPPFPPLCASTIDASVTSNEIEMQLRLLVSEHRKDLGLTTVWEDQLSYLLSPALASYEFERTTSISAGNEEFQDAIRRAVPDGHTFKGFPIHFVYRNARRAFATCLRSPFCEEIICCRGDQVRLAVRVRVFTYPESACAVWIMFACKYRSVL

effect of a mutation on the interaction | Variant
with no effect | R103C
